The results in this text go back to the supplement of paper PMC9233669.

Variants at the floor of the assay were thinned out.

One data set has as its system biotinyl-Phe-oxazolone. Put plainly: self-aminoacylation, catalytic enhancement (BFO) (fold over background); higher = more active; k-Seq, kA / k0A0; sequences stand for … in GGGAAUGGAUCCACAUCUACGAAUUC…UUCACUGCAGACUUGACGAAGCUG
The method in brief:
(§1)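 Mutagenized RNA pools (0.43 μM; 21-nt variable region) were treated with 2–1250 μM of each biotinyl-aminoacyl-oxazolone. Conditions were 50 μL HEPES/NaCl/KCl/MgCl2/CaCl2 buffer, 5% acetonitrile, pH 6.9–7.0, room temperature, 90 minutes. Catalytic enhancement, the median kA relative to the uncatalyzed rate, was derived from streptavidin capture, qPCR and Illumina sequencing.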

Another data set deals with biotinyl-Trp-oxazolone. In words: self-aminoacylation, catalytic enhancement (BWO) (fold over background); higher = more active; k-Seq, kA / k0A0; sequences stand for … in GGGAAUGGAUCCACAUCUACGAAUUC…UUCACUGCAGACUUGACGAAGCUG
The gist of the method: as §1

Regarding “CUAAUUCAAACAAUCGGUCUG [Fam1A.1 aminoacylation ribozyme variant]”, the self-aminoacylation worked out at 7.13 with biotinyl-Phe-oxazolone and 3.52 in the data set with biotinyl-Trp-oxazolone.

With “CUACACUUCAACCAAUCGGUC [Fam1B.1 aminoacylation ribozyme variant]”, the figures for the self-aminoacylation with biotinyl-Phe-oxazolone and with biotinyl-Trp-oxazolone were 59.2 and 30, respectively.

Turning to “CUACACUUCAAGGAAUCGGUC [Fam1B.1 aminoacylation ribozyme variant]”, the self-aminoacylation in the data set with biotinyl-Phe-oxazolone was found to be 3.89; in the data set with biotinyl-Trp-oxazolone it was 4.18.

On to “CUACACUUCAAGUAAUCGGUC [Fam1B.1 aminoacylation ribozyme variant]”, for which the self-aminoacylation was determined as 13.1 in the data set with biotinyl-Phe-oxazolone and 7.07 in the data set on biotinyl-Trp-oxazolone.

Take “CUACGUCAAAAAAUCGGUCUG [Fam1A.1 aminoacylation ribozyme variant]”: the self-aminoacylation in the data set on biotinyl-Phe-oxazolone came to 5.5; in the data set with biotinyl-Trp-oxazolone it was 2.35.

Regarding “CUACUUCAAACAAUCAGUCAG [Fam1A.1 aminoacylation ribozyme variant]”, the self-aminoacylation in the data set on biotinyl-Phe-oxazolone turned out to be 6.15; in the data set on biotinyl-Trp-oxazolone it was 2.43.

With “CUACUUCAAACAAUCAGUCUG [Fam1A.1 aminoacylation ribozyme variant]”, the results for the self-aminoacylation in the data set on biotinyl-Phe-oxazolone and in the data set with biotinyl-Trp-oxazolone were 27.8 and 9.7, respectively.

Consider “CUACUUCAAACAAUCGGACUG [Fam1A.1 aminoacylation ribozyme variant]”, for which the values for the self-aminoacylation in the data set with biotinyl-Phe-oxazolone and in the data set on biotinyl-Trp-oxazolone were 17.5 and 7.87, respectively.

As to “CUACUUCAAACAAUCGGUCCU [Fam1A.1 aminoacylation ribozyme variant]”, the results for the self-aminoacylation in the data set on biotinyl-Phe-oxazolone and in the data set with biotinyl-Trp-oxazolone were 6.8 and 3.25, respectively.

Regarding “CUACUUCAAACAAUCGGUCGC [Fam1A.1 aminoacylation ribozyme variant]”, the self-aminoacylation in the data set on biotinyl-Phe-oxazolone came out at 46.9; in the data set with biotinyl-Trp-oxazolone it was 26.2.

As to “CUACUUCAAACAAUCGGUCUC [Fam1A.1 aminoacylation ribozyme variant]”, the values for the self-aminoacylation with biotinyl-Phe-oxazolone and in the data set on biotinyl-Trp-oxazolone were 52.6 and 24.6, respectively.

For the sequence “CUACUUCAAACAAUCGGUCUG [Fam1A.1 aminoacylation ribozyme variant]”, the self-aminoacylation was determined as 67.9 in the data set on biotinyl-Phe-oxazolone and 31.4 in the data set on biotinyl-Trp-oxazolone.

For the sequence “CUACUUCAAACAAUCGGUGUG [Fam1A.1 aminoacylation ribozyme variant]”, the self-aminoacylation in the data set with biotinyl-Phe-oxazolone stood at 10.2; with biotinyl-Trp-oxazolone, 5.78.

Regarding “CUACUUCAAACAAUCGGUUUA [Fam1A.1 aminoacylation ribozyme variant]”, the self-aminoacylation is 4.11 with biotinyl-Phe-oxazolone and 2.11 in the data set with biotinyl-Trp-oxazolone.

As for “CUACUUCAAAUAAUCGGACUG [Fam1A.1 aminoacylation ribozyme variant]”, the self-aminoacylation in the data set on biotinyl-Phe-oxazolone is 6.03; in the data set with biotinyl-Trp-oxazolone, 2.71.

As to “CUACUUCAAAUAAUCGGUAUG [Fam1A.1 aminoacylation ribozyme variant]”, the values for the self-aminoacylation in the data set on biotinyl-Phe-oxazolone and with biotinyl-Trp-oxazolone were 7.28 and 3.96, respectively.

Consider “CUACUUCAACCAAUCGGUAUG [Fam1A.1 aminoacylation ribozyme variant]”, for which the self-aminoacylation with biotinyl-Phe-oxazolone stood at 9.31; in the data set with biotinyl-Trp-oxazolone, 4.25.

“CUACUUCAAUAAAUCGGUCUG [Fam1A.1 aminoacylation ribozyme variant]”: the self-aminoacylation with biotinyl-Phe-oxazolone came to 7.8; in the data set with biotinyl-Trp-oxazolone it was 4.71.

Regarding “CUACUUCAAUGAAUCGGUCUG [Fam1A.1 aminoacylation ribozyme variant]”, the self-aminoacylation is 7.24 in the data set with biotinyl-Phe-oxazolone and 5.68 with biotinyl-Trp-oxazolone.

Turning to “CUAUUUCAAACAAUCGGCCUG [Fam1A.1 aminoacylation ribozyme variant]”, the self-aminoacylation is 6.32 in the data set with biotinyl-Phe-oxazolone and 6.15 with biotinyl-Trp-oxazolone.

Take “CUCCUUCAAACAAUCAGUCUG [Fam1A.1 aminoacylation ribozyme variant]”: the self-aminoacylation in the data set on biotinyl-Phe-oxazolone came out at 20; in the data set with biotinyl-Trp-oxazolone it was 7.05.

Take “CUCCUUCAAACAAUCGGUGUG [Fam1A.1 aminoacylation ribozyme variant]”: the self-aminoacylation in the data set with biotinyl-Phe-oxazolone amounted to 8.49; in the data set with biotinyl-Trp-oxazolone, 6.8.
